This note sets out measurements from patent US20030206891A1, “Rapamycin-based biological regulation” (ARIAD Gene Therapeutics, Inc., priority 1995, published 2003).

For experiment [1], the target named is His6-flag-FKBP protein with FK506 (human). Description: phage display affinity enrichment: 1 µM His6-flag-FKBP plus FK506, Ni-NTA agarose capture, acid elution.
Experiment [2] has as its target His6-flag-FKBP protein with rapamycin (human). Description: phage display affinity enrichment: FRAP phagemids mixed with pBC control phagemids, 1 µM His6-flag-FKBP plus rapamycin, Ni-NTA agarose capture, acid elution.
In experiment [3] the target is His6-flag-FKBP protein alone (ethanol, no drug) (human). The experiment can be described thus: phage display affinity enrichment: 1 µM His6-flag-FKBP with ethanol alone, Ni-NTA agarose capture, acid elution.
For experiment [4], the target named is 1FRB-p65(361-550) (human) (UniProt P42345). Description: cell-based or functional assay.

Chain of His6-flag-FKBP protein alone (ethanol, no drug) (human) (chain, as listed by the source limits assumed): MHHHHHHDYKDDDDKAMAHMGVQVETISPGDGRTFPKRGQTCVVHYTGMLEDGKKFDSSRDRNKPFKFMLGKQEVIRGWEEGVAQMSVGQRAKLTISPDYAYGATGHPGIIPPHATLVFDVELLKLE
Chain of His6-flag-FKBP protein with rapamycin (human) (chain, as listed by the source limits assumed): as above
Chain of His6-flag-FKBP protein with FK506 (human) (chain, as listed by the source limits assumed): as above

Consider “phagemids displaying FRAP (amino acids 2015-2114) (from UniProt P42345 2015-2114; P03661 216-424)”, for which the fold enrichment of FRAP phage compared to the starting mixture (carb/chlor cfu ratio) in experiment [1] amounted to 2.4 fold; in experiment [2], 271 fold; in experiment [3], 1.5 fold.

For the substance “ZFHD1-3FKBP (from UniProt P62942 1-107; P62942 1-107; P62942 1-107)”, in experiment [4], the SEAP activity of the stable clone at 1100 nM rapamycin (arbitrary fluorescence units) is greater than 90000; the SEAP activity of the stable clone, no rapamycin (mock transfected cells 47 units) (arbitrary fluorescence units) was found to be 54; the SEAP secretion, enhancement with rapamycin over background was greater than 1000 fold; the SEAP secretion, transiently transfected HT1080 cells: lowest rapamycin concentration with detectable signal turned out to be 0.5 nM. The SEAP secretion, transiently transfected HT1080 cells: rapamycin concentration of the peak in experiment [4] was 5 nM.
